Results taken from publication PMC7524730.
Where two headings read alike, the source gives them in different places.

Experiments:
PRMT5 = PRMT5 (UniProt O14744); experiment: co-IP and immunoblot; conditions: reference: LSH wild type; sites S503

Substance: LSH (lymphoid-specific helicase; HELLS) (from UniProt Q9NRZ9) LSH S503A
- binding against the reference (PRMT5): stronger

Substance: LSH (lymphoid-specific helicase; HELLS, PASG, SMARCA6): Lambda Protein Phosphatase (λPP)
- other (phosphorylation at S503): increases

Substance: LSH (lymphoid-specific helicase; HELLS, PASG, SMARCA6): MAPK1 shRNA knockdown; LY3214996 (MAPK1/2 inhibitor)
- other (phosphorylation at S503): increases

Substance: LSH (lymphoid-specific helicase; HELLS, PASG, SMARCA6): R309A
- localisation_or_trafficking (methylation at R309): no change
- other (methylation at R309): increases

Substance: LSH (lymphoid-specific helicase; HELLS, PASG, SMARCA6): R507A
- other (methylation at R507): no change

Substance: LSH (lymphoid-specific helicase; HELLS, PASG, SMARCA6): R541A
- other (methylation at R541): no change

Substance: LSH (lymphoid-specific helicase; HELLS, PASG, SMARCA6): S503A
- localisation_or_trafficking (phosphorylation at S503): no change
- other (phosphorylation at S503): increases

Substance: LSH (lymphoid-specific helicase; HELLS, PASG, SMARCA6): S503D phosphomimic
- other (phosphorylation at S503): decreases
